Results reported in US20250320312A1 (OXITOPE PHARMA B V, published 2025).
Where a chain is given by its changes, count along the chain named. Blank lines part the entries; values can stand above or below the binder they belong to.

Tests used:
[1] = target: T1, Peptide 4: Biotin-AGGGGSGGGGSGGGGSAAA-Tyr-acid (N-terminal biotin; C-terminal acid); experiment: scFv ELISA
T1 construct: control peptide without PC
T1 peptide: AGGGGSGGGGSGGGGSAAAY
Summary of the method: (§1)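 Bound scFv was read as OD450 after HRP–anti-V5 detection, TMB development and HCl stop. PPE with BSA was incubated 1 h at RT on BSA-blocked wells coated overnight at 4° C. with peptide, or on streptavidin wells loaded 1 h with biotinylated PC-peptides at 1 μg/mL.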

[2] = target: T2, Peptide 5: Biotin-AEAAAKEAAAKEAAAKEAAAKAAA-[Tyr(PC)]-acid (N-terminal biotin; C-terminal Tyr(PC), PC = p-diazophenyl phosphoryl choline; C-terminal acid); experiment: scFv ELISA
T2 construct: synthetic PC-conjugated peptide; the antibodies are directed at the phosphocholine group
T2 peptide: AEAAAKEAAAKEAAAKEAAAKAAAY
Summary of the method: as §1

[3] = target: T3, Peptide 1: Biotin-AGGGGSGGGGSGGGGSAAA-[Tyr(PC)]-acid (N-terminal biotin; C-terminal Tyr(PC), PC = p-diazophenyl phosphoryl choline; C-terminal acid); experiment: scFv ELISA
T3 construct: synthetic PC-conjugated peptide; the antibodies are directed at the phosphocholine group
T3 peptide: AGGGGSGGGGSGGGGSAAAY
Summary of the method: as §1

[4] = target: T4, Peptide 8: Biotin-AEAAAKEAAAKEAAAKEAAAKAAA-Tyr-acid (N-terminal biotin; C-terminal acid); experiment: scFv ELISA
T4 construct: control peptide without PC
T4 peptide: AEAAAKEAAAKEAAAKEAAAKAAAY
Summary of the method: as §1

BSA [5] = target: BSA (UniProt P02769); experiment: scFv ELISA
Sequence of BSA (P02769 25-607 limits assumed): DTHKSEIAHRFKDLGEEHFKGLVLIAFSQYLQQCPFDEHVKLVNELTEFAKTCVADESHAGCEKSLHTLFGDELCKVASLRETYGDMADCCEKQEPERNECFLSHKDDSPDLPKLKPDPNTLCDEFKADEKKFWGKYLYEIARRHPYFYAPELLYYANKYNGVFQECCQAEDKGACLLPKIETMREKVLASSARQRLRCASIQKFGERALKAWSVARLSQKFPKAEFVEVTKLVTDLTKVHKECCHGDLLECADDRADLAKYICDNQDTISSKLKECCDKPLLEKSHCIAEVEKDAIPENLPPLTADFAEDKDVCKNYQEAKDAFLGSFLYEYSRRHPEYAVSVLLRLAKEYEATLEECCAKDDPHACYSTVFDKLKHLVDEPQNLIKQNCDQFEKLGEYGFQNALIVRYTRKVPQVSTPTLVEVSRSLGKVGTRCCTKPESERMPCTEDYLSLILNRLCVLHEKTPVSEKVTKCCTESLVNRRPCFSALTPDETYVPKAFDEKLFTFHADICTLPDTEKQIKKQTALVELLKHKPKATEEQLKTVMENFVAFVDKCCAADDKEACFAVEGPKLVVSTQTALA

PC-BSA = experiment: ELISA (DELFIA TRF), PC-BSA coated, titrated IgG1
Sequence of PC-BSA (P02769 25-607 limits assumed, form in doubt): as the sequence (P02769 25-607 limits assumed) above

BSA [6] = target: BSA (UniProt P02769); experiment: scFv ELISA, periplasmic extract on coated BSA, anti-V5-HRP detection
[7] = target: T5, Peptide 8: Biotin-…-Tyr-acid; experiment: scFv ELISA, periplasmic extract on coated peptide, anti-V5-HRP detection
T5 sequence (peptide, N-terminal biotin; C-terminal acid): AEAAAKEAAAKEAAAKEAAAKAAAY

[8] = target: T6, Peptide 4: Biotin-…-Tyr-acid; experiment: as above
T6 sequence (peptide, N-terminal biotin; C-terminal acid): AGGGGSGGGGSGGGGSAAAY

[9] = target: T7, Peptide 8: Biotin-AEAAAKEAAAKEAAAKEAAAKAAA-Tyr-acid (N-terminal biotin; C-terminal acid); experiment: scFv ELISA
T7 construct: Control peptide without PC
T7 peptide: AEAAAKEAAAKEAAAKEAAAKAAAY
Summary of the method: as §1

[10] = target: T8, Peptide 1: Biotin-AGGGGSGGGGSGGGGSAAA-[Tyr(PC)]-acid (N-terminal biotin; C-terminal Tyr(PC), PC = p-diazophenyl phosphoryl choline; C-terminal acid); experiment: scFv ELISA
T8 construct: Synthetic phosphocholine-conjugated peptide
T8 peptide: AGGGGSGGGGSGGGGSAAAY
Summary of the method: as §1

[11] = target: T9, Peptide 4: Biotin-AGGGGSGGGGSGGGGSAAA-Tyr-acid (N-terminal biotin; C-terminal acid); experiment: scFv ELISA
T9 construct: Control peptide without PC
T9 peptide: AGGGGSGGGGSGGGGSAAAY
Summary of the method: as §1

[12] = target: Peptide 5: Biotin-…-[Tyr(PC)]-acid; experiment: scFv ELISA
[13] = target: T10, Peptide 8: Biotin-AEAAAKEAAAKEAAAKEAAAKAAA-Tyr-acid (N-terminal biotin; C-terminal acid; no PC); experiment: scFv ELISA
T10 construct: control peptide without PC
T10 peptide: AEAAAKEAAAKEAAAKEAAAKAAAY
Summary of the method: as §1

[14] = target: T11, Peptide 1: Biotin-AGGGGSGGGGSGGGGSAAA-[Tyr(PC)]-acid (N-terminal biotin; C-terminal Tyr(PC), PC = p-diazophenyl phosphoryl choline; C-terminal acid); experiment: scFv ELISA
T11 peptide: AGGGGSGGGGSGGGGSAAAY
Summary of the method: as §1

[15] = target: T12, Peptide 4: Biotin-AGGGGSGGGGSGGGGSAAA-Tyr-acid (N-terminal biotin; C-terminal acid; no PC); experiment: scFv ELISA
T12 construct: control peptide without PC
T12 peptide: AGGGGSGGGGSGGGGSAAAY
Summary of the method: as §1

B1: PcOxP_DB02_E06 (scFv, V domains shown)
VH: EVQLLESGGGLVQPGGSLRLSCAASGFTFSDEYMEWVRQAPGKGLEWVAASRGKGNSYTTEYADSVKGRFTISRDNSKNTLYLQMNSLRAEDTAVYYCARDYYGSSYWYFDVWGQGTLVTVSS
VL: DIQMTQSPSSLSASVGDRVTITCTASESLYSSKHKVHYLAWYQQKPGKAPKLLIYGASNRYIGVPSRFSGSGSGTDFTLTISSLQPEDFATYYCAQFYSYPLTFGGGTKVEIK
notes: scFv in periplasmic extract
OD450 [1]: 0.04 OD450 | OD450 [2]: 0.08 OD450 | OD450 [3]: 0.06 OD450 | OD450 [4]: 0.04 OD450 | OD450 (BSA [5]): 0.1 OD450

B3: PcOxP_DB02_F10 (human IgG1) (antibody, V domains shown)
VH: B1 VH with E32Q, G53N, G55A, S57D
VL: DIVMTQSPDSLAVSLGERATINCTSSQSVLSSKHNKNYLAWYQQKPGQPPKLLIYGASNRYWGVPDRFSGSGSGTDFTLTISSLQAEDVAVYYCAQFYSYPLTFGGGTKVEIK
EC50 (PC-BSA): 0.659 nM

B4: PcOxP_DB01_F11 (human IgG1) (antibody, V domains shown)
VH: B1 VH with D31S, E32Y, G53N, G55A, S57D, F110Y
VL: B3 VL with S25A, Q27E, V29L, L30Y, N35K, K36V, N37H, W62I
EC50 (PC-BSA): 0.244 nM

B9: PcOxP_DB01_H08 (human IgG1) (antibody, V domains shown)
VH: B1 VH with F29H, E32F, G53N, G55A, S57D
VL: DIQMTQSPSSLSASVGDRVTITCRASESISSSKHKHYLAWYQQKPGKAPKLLIYGASNRYIGVPSRFSGSGSGTDFTLTISSLQPEDFATYYCAQFYVYPLTFGGGTKVEIK
EC50 (PC-BSA): 0.244 nM

B11: PcOxP_DB02_C09 (human IgG1) (antibody, V domains shown)
VH: B1 VH with E32A, G53N, G55A, S57D
VL: B1 VL with S58G, S99F
EC50 (PC-BSA): 0.394 nM

B12: PcOxP_DB02_A05 (human IgG1) (antibody, V domains shown)
VH: B1 VH with F29G, E32F, G53N, G55W, S57D
VL: B3 VL with S25A, Q27E, V29L, L30Y, N35K, K36V, N37H, S58G, W62I
EC50 (PC-BSA): 0.264 nM

B13: PcOxP_DB03_G03 (human IgG1) (antibody, V domains shown)
VH: B1 VH with F29S, E32F, G53N, G55A, S57D
VL: B1 VL with E27Q, L29I, Y30S, R60H
EC50 (PC-BSA): 0.216 nM

B15: PcOxP_DB01_F06 (human IgG1) (antibody, V domains shown)
VH: B1 VH with F27D, E32F, G53N, G55A, S57D
VL: B3 VL with T24K, V29L, L30Y, S31Y, K33S, H34N, N35K, W62G, S99R
EC50 (PC-BSA): 0.216 nM

B16: PcOxP_DB01_F04 (human IgG1) (antibody, V domains shown)
VH: B1 VH with D31S, E32Y, G53N, G55Y, S57D
VL: B1 VL with S58V, S99R
EC50 (PC-BSA): 0.344 nM

B17: PcOxP_DB02_G04 (human IgG1) (antibody, V domains shown)
VH: B1 VH with E32Y, G53W, G55A, S57D
VL: B3 VL with T24K, S25A, S31Y, H34N, N35K, N37H, Y61Q, W62I, S99V
EC50 (PC-BSA): 0.231 nM

B19: PcOxP_DB01_B06 (human IgG1) (antibody, V domains shown)
VH: B1 VH with D31S, E32Y, G53N, G55Y, S57D, Y107T
VL: B3 VL with S25A, Q27E, V29L, L30Y, N35K, K36V, N37H, W62I
EC50 (PC-BSA): 0.219 nM

B21: PcOxP_DB02_B04 (human IgG1) (antibody, V domains shown)
VH: B1 VH with E32Y, G53N, G55W, S57D
VL: B3 VL with S25A, Q27E, V29L, L30Y, N35K, K36V, N37H, W62I
EC50 (PC-BSA): 0.278 nM

B22: PcOxP_DB02_H02 (scFv, V domains shown)
VH: B1 VH with F27P, E32F, G53N, G55A, S57D
VL: B3 VL with S25A, Q27E, V29L, L30Y, N35K, K36V, N37H, W62I, S99D
notes: scFv in periplasmic extract
OD450 [9]: 0.06 OD450 | OD450 [10]: 0.07 OD450 | OD450 [11]: 0.04 OD450 | OD450 (BSA [5]): 0.06 OD450 | OD450 [12]: 0.19 OD450

B23: PcOxP_DB01_H07 (scFv, V domains shown)
VH: B1 VH with E32H, G53N, G55Y, S57D, Y102I
VL: B3 VL with S25A, Q27E, L30Y, H34N, N35K, N37H, W62I
notes: scFv in periplasmic extract
OD450 [13]: 0.05 OD450 | OD450 [14]: 0.1 OD450 | OD450 [15]: 0.05 OD450 | OD450 (BSA [5]): 0.07 OD450 | OD450 [12]: 0.92 OD450

The remaining lines, values ahead:

EC50 (PC-BSA): 0.269 nM
B2: PcOxP_DB04_A09 (human IgG1) (antibody, V domains shown)
VH: B1 VH with E32Y, G53N, G55W, S57D
VL: B1 VL with S26E, R60L, I62S

EC50 (PC-BSA): 0.251 nM
B5: PcOxP_DB04_E08 (human IgG1) (antibody, V domains shown)
VH: B1 VH with F29S, E32F, M34L, G53N, G55W, S57D
VL: B3 VL with S25A, Q27E, V29L, L30Y, N35K, K36V, N37H, A57V, W62I

EC50 (PC-BSA): 0.294 nM
B6: PcOxP_DB04_A04 (human IgG1) (antibody, V domains shown)
VH: B1 VH with E32F, G53N, G55W, S57D
VL: B3 VL with S25A, L30Y, H34N, N35K, N37H, W62I, S99R

EC50 (PC-BSA): 0.257 nM
B7: PcOxP_DB04_G01 (human IgG1) (antibody, V domains shown)
VH: B1 VH with E32Y, G53N, G55W, S57D, G104L
VL: B3 VL with T24K, S25A, H34N, K36V, W62I, S99Q

EC50 (PC-BSA): 0.229 nM
B8: PcOxP_DB03_H03 (human IgG1) (antibody, V domains shown)
VH: B1 VH with F29G, E32F, G53N, G55W, S57D
VL: B9 VL with R24T, I29L, N58S, I61S, V98S

OD450 (BSA [6]): 0.07 OD450 | OD450 [7]: 0.07 OD450 | OD450 [8]: 0.06 OD450
B10: PcOxP_DB04_H01 (scFv) (scFv, part only; not given: linker, domain order, V5 tag, V domains shown, not shown: another chain or arm of the molecule; small tags and cut ends)
VH: B1 VH with E32Y, G53N, G55Y, S57D
VL: B3 VL with S25A, Q27E, V29L, L30Y, N35K, K36V, N37H, W62S, S99N

OD450 (BSA [6]): 0.07 OD450
B14: PcOxP_DB04_G11 (scFv) (scFv, V domains shown)
VH: B1 VH with E32H, G53W, G55A, S57D
VL: B3 VL with S25A, Q27E, V29L, L30Y, N35K, K36V, N37H, R60T, W62I

EC50 (PC-BSA): 0.557 nM
B18: PcOxP_DB03_G12 (human IgG1) (antibody, V domains shown)
VH: B1 VH with E32Y, G53N, G55Y, S57D
VL: B3 VL with T24K, Q27E, L30Y, N35K, N37H, W62I

EC50 (PC-BSA): 0.244 nM
B20: PcOxP_DB03_G11 (human IgG1) (antibody, V domains shown)
VH: B1 VH with D31S, E32Y, G53N, G55A, S57D
VL: B3 VL with T24K, N35K, W62I
